Source: paper PMC9482650, “Quantitative fragmentomics allow affinity mapping of interactomes” (Nature Communications, 2022)

How the values were obtained:
Assay in all cases: holdup assay
Design in all cases: key: below the threshold = too weak to quantify, mostly under pKd 3.1 to 4
[1] = target: NHERF4_2, Q86UT5
[2] = target: GRIP2_4, Q9C0E4
[3] = target: T1, HTRA4, P83105
T1 sequence (P83105 378-476, limits assumed, looked up): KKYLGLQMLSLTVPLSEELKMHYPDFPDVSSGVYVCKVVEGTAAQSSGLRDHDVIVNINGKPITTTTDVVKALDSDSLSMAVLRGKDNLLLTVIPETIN

[4] = target: Inadl_5, Q8NI35
Inadl_5, Q8NI35, sequence (Q8NI35 673-780): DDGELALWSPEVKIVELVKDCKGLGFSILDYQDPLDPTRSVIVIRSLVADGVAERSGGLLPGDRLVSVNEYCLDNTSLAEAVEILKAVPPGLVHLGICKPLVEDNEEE

[5] = target: SCRIB_2, Q14160
SCRIB_2, Q14160, sequence (Q14160 857-960): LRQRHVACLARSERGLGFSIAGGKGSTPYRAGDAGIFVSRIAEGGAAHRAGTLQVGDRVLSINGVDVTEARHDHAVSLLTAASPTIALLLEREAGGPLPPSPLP

[6] = target: T2, NHERF3_3, Q5T2W1
T2 sequence (Q5T2W1 238-333, limits assumed, looked up): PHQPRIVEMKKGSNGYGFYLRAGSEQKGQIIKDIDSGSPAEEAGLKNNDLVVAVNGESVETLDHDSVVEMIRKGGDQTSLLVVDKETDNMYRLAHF

[7] = target: GIPC2, Q8TF65
GIPC2, Q8TF65, sequence (Q8TF65 112-203): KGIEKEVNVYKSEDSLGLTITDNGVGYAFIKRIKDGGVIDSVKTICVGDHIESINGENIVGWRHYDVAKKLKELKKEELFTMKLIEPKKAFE

[8] = target: T3, SNTG1, Q9NSN8
T3 sequence (Q9NSN8 52-150, limits assumed, looked up): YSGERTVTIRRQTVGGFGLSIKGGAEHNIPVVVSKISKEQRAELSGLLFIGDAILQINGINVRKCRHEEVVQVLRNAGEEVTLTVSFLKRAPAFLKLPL

[9] = target: T4, NHERF3_4, Q5T2W1
T4 sequence (Q5T2W1 373-468, limits assumed, looked up): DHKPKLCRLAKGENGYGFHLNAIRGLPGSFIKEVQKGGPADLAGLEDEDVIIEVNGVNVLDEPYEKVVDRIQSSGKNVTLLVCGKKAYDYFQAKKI

[10] = target: T5, CARD11, Q9BXL7
T5 sequence (Q9BXL7 662-765, limits assumed, looked up): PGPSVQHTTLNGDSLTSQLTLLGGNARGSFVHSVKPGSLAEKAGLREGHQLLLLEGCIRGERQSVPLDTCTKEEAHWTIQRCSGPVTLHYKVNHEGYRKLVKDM

[11] = target: Inadl_6, Q8NI35
Inadl_6, Q8NI35, sequence (Q8NI35 1058-1167): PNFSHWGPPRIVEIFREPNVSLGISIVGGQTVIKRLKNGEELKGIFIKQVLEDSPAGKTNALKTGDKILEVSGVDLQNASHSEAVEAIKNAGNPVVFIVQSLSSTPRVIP

[12] = target: MAGI2_4, Q86UL8
MAGI2_4, Q86UL8, sequence (Q86UL8 772-865): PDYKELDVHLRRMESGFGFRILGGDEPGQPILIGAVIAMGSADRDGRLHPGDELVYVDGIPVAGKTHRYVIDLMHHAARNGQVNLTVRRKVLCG

[13] = target: T6, GRIP1_2, Q9Y3R0
T6 sequence (Q9Y3R0 145-248, limits assumed, looked up): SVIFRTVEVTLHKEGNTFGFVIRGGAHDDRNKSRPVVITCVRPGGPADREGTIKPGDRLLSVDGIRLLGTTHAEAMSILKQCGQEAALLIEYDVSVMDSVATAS

[14] = target: T7, SIPA1L2, Q9P2F8
T7 sequence (Q9P2F8 945-1036, limits assumed, looked up): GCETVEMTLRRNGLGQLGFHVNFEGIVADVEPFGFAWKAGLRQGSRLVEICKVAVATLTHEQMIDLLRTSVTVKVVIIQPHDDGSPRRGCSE

[15] = target: ARHGEF12, Q9NZN5-2
ARHGEF12, Q9NZN5-2, sequence (Q9NZN5 other isoform, or with tags, fused parts or gaps): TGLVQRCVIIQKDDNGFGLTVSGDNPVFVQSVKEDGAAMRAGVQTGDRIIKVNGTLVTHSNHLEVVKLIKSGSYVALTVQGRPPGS

[16] = target: LNX1_3, Q8TBB1
LNX1_3, Q8TBB1, sequence (Q8TBB1 500-596): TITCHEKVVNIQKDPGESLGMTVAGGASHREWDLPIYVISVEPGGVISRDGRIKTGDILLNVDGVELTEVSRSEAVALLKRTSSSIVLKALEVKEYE

[17] = target: T8, TJP3_3, O95049
T8 sequence (O95049 375-456, limits assumed, looked up): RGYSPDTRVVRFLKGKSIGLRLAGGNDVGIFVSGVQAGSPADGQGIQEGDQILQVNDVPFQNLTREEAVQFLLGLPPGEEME

[18] = target: DLG1_3, Q12959
DLG1_3, Q12959, sequence (Q12959 457-571): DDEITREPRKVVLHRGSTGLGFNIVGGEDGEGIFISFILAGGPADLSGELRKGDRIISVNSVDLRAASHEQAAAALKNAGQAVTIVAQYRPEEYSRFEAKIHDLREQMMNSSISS

[19] = target: T9, SNTA1, Q13424
T9 sequence (Q13424 82-180, limits assumed, looked up): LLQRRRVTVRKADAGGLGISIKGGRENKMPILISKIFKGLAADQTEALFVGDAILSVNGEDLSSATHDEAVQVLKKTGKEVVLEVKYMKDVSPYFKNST

[20] = target: PICK1, Q9NRD5
PICK1, Q9NRD5, sequence (Q9NRD5 17-115): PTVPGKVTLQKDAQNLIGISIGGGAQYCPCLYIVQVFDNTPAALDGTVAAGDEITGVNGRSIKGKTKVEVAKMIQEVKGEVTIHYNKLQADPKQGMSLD

[21] = target: PTPN3, P26045
PTPN3, P26045, sequence (P26045 505-587): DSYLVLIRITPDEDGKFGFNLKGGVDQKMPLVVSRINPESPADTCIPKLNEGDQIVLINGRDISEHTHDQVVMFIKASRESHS

[22] = target: T10, PDZD2_2, O15018
T10 sequence (O15018 329-429, limits assumed, looked up): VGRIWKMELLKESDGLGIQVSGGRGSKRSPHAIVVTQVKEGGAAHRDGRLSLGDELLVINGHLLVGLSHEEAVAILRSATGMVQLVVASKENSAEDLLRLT

[23] = target: LDB3, O75112
LDB3, O75112, sequence (O75112 1-94): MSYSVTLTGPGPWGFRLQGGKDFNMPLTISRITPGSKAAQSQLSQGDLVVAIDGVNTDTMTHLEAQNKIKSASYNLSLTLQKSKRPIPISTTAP

[24] = target: MAGI2_5, Q86UL8
MAGI2_5, Q86UL8, sequence (Q86UL8 915-1017): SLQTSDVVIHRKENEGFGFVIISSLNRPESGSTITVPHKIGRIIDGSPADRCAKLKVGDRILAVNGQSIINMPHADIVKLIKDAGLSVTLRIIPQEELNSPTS

[25] = target: T11, FRMPD1, Q5SYB0
T11 sequence (Q5SYB0 52-145, limits assumed, looked up): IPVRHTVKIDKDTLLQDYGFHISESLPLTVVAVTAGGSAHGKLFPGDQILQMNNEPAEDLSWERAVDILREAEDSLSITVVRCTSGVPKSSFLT

[26] = target: MAGI2_3, Q86UL8
MAGI2_3, Q86UL8, sequence (Q86UL8 600-682): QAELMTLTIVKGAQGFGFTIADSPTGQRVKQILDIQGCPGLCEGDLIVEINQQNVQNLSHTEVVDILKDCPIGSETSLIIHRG

[27] = target: HTRA1, Q92743
HTRA1, Q92743, sequence (Q92743 360-477): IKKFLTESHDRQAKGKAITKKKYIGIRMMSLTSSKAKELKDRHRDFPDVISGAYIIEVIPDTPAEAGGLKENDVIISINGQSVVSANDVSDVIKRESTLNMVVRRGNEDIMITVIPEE

[28] = plain residues with an end cap or a label only (N-terminal biotin on a linker: ado-ado)
[29] = modified: phospho on T at position -2 from the C-terminal residue

Measured: pKd

NHERF4_2, Q86UT5, sequence (Q86UT5 220-308): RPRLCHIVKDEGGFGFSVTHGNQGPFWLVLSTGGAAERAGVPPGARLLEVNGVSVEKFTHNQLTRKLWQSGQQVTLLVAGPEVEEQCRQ
GRIP2_4, Q9C0E4, sequence (Q9C0E4 446-548): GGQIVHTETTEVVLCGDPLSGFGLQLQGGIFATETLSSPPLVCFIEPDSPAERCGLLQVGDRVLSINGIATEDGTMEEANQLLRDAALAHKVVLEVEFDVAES

YNNCLEILRV [DCAF7, P61962]
3.94: [16]; [28]
5.22: [27]; [28]
4.68: [3]; [28]
below the threshold: [1]; [28] | [2]; [28] | [4]; [28] | [5]; [28] | [6]; [28] | [7]; [28] | [8]; [28] | [9]; [28] | [10]; [28] | [11]; [28] | [12]; [28] | [13]; [28] | [14]; [28] | [15]; [28] | [17]; [28] | [18]; [28] | [19]; [28] | [20]; [28] | [21]; [28] | [22]; [28] | [23]; [28] | [24]; [28] | [25]; [28] | [26]; [28]

SKPTRRETEV [HPV35-E6_-2P, P27228]
3.98: [21]; [29]
below the threshold: [1]; [29] | [2]; [29] | [3]; [29] | [4]; [29] | [5]; [29] | [6]; [29] | [7]; [29] | [8]; [29] | [9]; [29] | [10]; [29] | [11]; [29] | [12]; [29] | [13]; [29] | [14]; [29] | [15]; [29] | [16]; [29] | [17]; [29] | [18]; [29] | [19]; [29] | [20]; [29] | [22]; [29] | [23]; [29] | [24]; [29] | [25]; [29] | [26]; [29] | [27]; [29]

LRSPRTPSEV [OR10G3, Q8NGC4]
3.95: [22]; [28]
3.65: [15]; [28]
below the threshold: [1]; [28] | [2]; [28] | [7]; [28] | [8]; [28] | [9]; [28] | [10]; [28] | [11]; [28] | [12]; [28] | [13]; [28] | [14]; [28] | [16]; [28] | [17]; [28] | [18]; [28] | [20]; [28] | [23]; [28] | [24]; [28] | [25]; [28]
3.6: [5]; [28]
4.26: [21]; [28]
3.54: [6]; [28]
4.73: [4]; [28]
4: [3]; [28]
3.55: [26]; [28]
3.58: [27]; [28]
3.52: [19]; [28]

RRLPGKETMA [GRIK2, Q13002]
below the threshold: [1]; [28] | [2]; [28] | [3]; [28] | [4]; [28] | [5]; [28] | [6]; [28] | [7]; [28] | [8]; [28] | [9]; [28] | [10]; [28] | [11]; [28] | [12]; [28] | [13]; [28] | [14]; [28] | [15]; [28] | [16]; [28] | [17]; [28] | [19]; [28] | [20]; [28] | [21]; [28] | [22]; [28] | [23]; [28] | [24]; [28] | [25]; [28] | [26]; [28] | [27]; [28]
3.69: [18]; [28]

RRRESYSTTV [EVI5, O60447]
below the threshold: [1]; [28] | [2]; [28] | [5]; [28] | [6]; [28] | [7]; [28] | [9]; [28] | [10]; [28] | [11]; [28] | [13]; [28] | [16]; [28] | [17]; [28] | [23]; [28] | [25]; [28] | [26]; [28]
3.63: [4]; [28] | [8]; [28]
3.47: [14]; [28]
4.05: [20]; [28]
4.08: [3]; [28]
4.41: [19]; [28]
4.63: [12]; [28]
4.54: [24]; [28]
4.31: [21]; [28]
4.74: [15]; [28]
4.7: [22]; [28]
4.16: [18]; [28]
4.45: [27]; [28]
